This is an account of results in the RNAGym collection of RNA variant scans (doi:10.1073/pnas.2313332121).

Fewer inactive variants are shown than the library holds.

Sequences and labels used below:
B1: TPR 5TU (parent)
chain: GGAUCUUCUCGAUCUAACAAAAAAGACAAAUCUGCCACAAAGCUUGAGAGCAUCUUCGGAUGCAGAGGCGGCAGCCUUCGGUGGCGCGAUAGCGCCAACGUUCUCAACUAUGACACGCAAAACGCGUGCUCCGUUGAAUGGAGUUUAUCAUG

Variants of B1 are the subject of the series. The series is described as follows: polymerase ribozyme fitness, log enrichment relative to wild type (log ratio); higher = more active; in vitro selection for triplet polymerase activity. In a few lines:
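Each subunit of a heterodimeric triplet polymerase ribozyme was represented by a PCR-built, transcribed mutant library that underwent triplicate single-round in vitro selection with frozen incubation at −7 °C. Extended constructs were recovered by gel excision, streptavidin-bead capture and RT-PCR, and Illumina sequencing of input and output libraries kept genotypes with ≥10 input reads and ≥1 read per output. Fitness is the logarithm of genotype enrichment relative to wild-type enrichment, from inverse-variance-weighted replicate averages, with a logarithm base of 2.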
With G48A G86U C95U C123A, the “polymerase ribozyme fitness (log ratio)” value is -2.89.

As to A12U U56G A91G, the “polymerase ribozyme fitness (log ratio)” value was -2.61.

U7C A20C A49C U77C A91U: the “polymerase ribozyme fitness (log ratio)” value is ≤ -4.2.

In the case of C35U C129U, the “polymerase ribozyme fitness (log ratio)” value is -0.479.

For G88A A98U A106C, the “polymerase ribozyme fitness (log ratio)” value is ≤ -4.2.

Regarding U82G C95G G126C, the “polymerase ribozyme fitness (log ratio)” value was -1.07.

As for C51A G86A C118A, the “polymerase ribozyme fitness (log ratio)” value was -3.43.

On to A39U C85U, for which the “polymerase ribozyme fitness (log ratio)” value was -2.27.

On to G67A C72A A142U, for which the “polymerase ribozyme fitness (log ratio)” value was ≤ -4.2.

Consider C14G G50A G58C U82C G141C, for which the “polymerase ribozyme fitness (log ratio)” value is -4.17.

Consider G83C U145C, for which the “polymerase ribozyme fitness (log ratio)” value was -2.18.

Take A21G C93U: the “polymerase ribozyme fitness (log ratio)” value was -0.895.

As to G50C C54U, the “polymerase ribozyme fitness (log ratio)” value is -2.6.

Turning to C14G A26G G58U C72U A122G, the “polymerase ribozyme fitness (log ratio)” value is ≤ -4.2.

Regarding A28G A49U U56A A66U U90G A106U C108G A119G, the “polymerase ribozyme fitness (log ratio)” value is ≤ -4.2.

For A23G A40C G81A U145C, the “polymerase ribozyme fitness (log ratio)” value was -3.98.

Take A20G G25A A49G C54U C76U G84A A122U U145G: the “polymerase ribozyme fitness (log ratio)” value is ≤ -4.2.

Consider U7C A12C A24C C96U A120C, for which the “polymerase ribozyme fitness (log ratio)” value was ≤ -4.2.

In the case of G67C C69G A91U, the “polymerase ribozyme fitness (log ratio)” value was ≤ -4.2.

Take C79A C96G: the “polymerase ribozyme fitness (log ratio)” value is ≤ -4.2.

Regarding A30G A150U, the “polymerase ribozyme fitness (log ratio)” value is -2.97.

As for A20G G59A U77A C95U G117U C118G A122U, the “polymerase ribozyme fitness (log ratio)” value is ≤ -4.2.

In the case of A3U C85G C93G G136A A142C, the “polymerase ribozyme fitness (log ratio)” value is ≤ -4.2.

For G126A G143A, the “polymerase ribozyme fitness (log ratio)” value is -1.92.

Take U56A C76A A119U A121C G126U: the “polymerase ribozyme fitness (log ratio)” value is -1.11.

Regarding U33A G58A C96A G152U, the “polymerase ribozyme fitness (log ratio)” value is -3.79.

In the case of C85A U144C, the “polymerase ribozyme fitness (log ratio)” value is -0.693.

Take U9A A19C A41C C57U C96U: the “polymerase ribozyme fitness (log ratio)” value was ≤ -4.2.

U6C C10U A20C A122C: the “polymerase ribozyme fitness (log ratio)” value is ≤ -4.2.

For the variant U13C C35A A91U C95A U104C C131G, the “polymerase ribozyme fitness (log ratio)” value was ≤ -4.2.

In the case of G126C, the “polymerase ribozyme fitness (log ratio)” value stood at 1.28.

With A19U A40G U101G, the “polymerase ribozyme fitness (log ratio)” value was -3.45.

G88U U90C G133C A137C: the “polymerase ribozyme fitness (log ratio)” value is ≤ -4.2.

Take C14U C57A A89G C96U U101A G136U: the “polymerase ribozyme fitness (log ratio)” value was ≤ -4.2.

For the variant A40G C69G G70U G83A A150U, the “polymerase ribozyme fitness (log ratio)” value was ≤ -4.2.

For the variant A3C A24G C36U A41U C72U C85A A91U U151A G152C, the “polymerase ribozyme fitness (log ratio)” value was ≤ -4.2.

Consider U15A A49U A73G U82G A107U, for which the “polymerase ribozyme fitness (log ratio)” value is ≤ -4.2.

Consider C38G A40G G83A, for which the “polymerase ribozyme fitness (log ratio)” value was -3.86.

Regarding G25C C85U A89U U135G, the “polymerase ribozyme fitness (log ratio)” value was ≤ -4.2.

U4C C51U C76U G94A: the “polymerase ribozyme fitness (log ratio)” value is -1.51.

A39G G88A A142U: the “polymerase ribozyme fitness (log ratio)” value is ≤ -4.2.

Consider A17C C38A A47G G92C, for which the “polymerase ribozyme fitness (log ratio)” value was -0.622.

Consider A24U U55G, for which the “polymerase ribozyme fitness (log ratio)” value was found to be 0.467.

For the variant G62U G94U C96U, the “polymerase ribozyme fitness (log ratio)” value is -3.88.

Turning to C35U C43A C95G U101C, the “polymerase ribozyme fitness (log ratio)” value was ≤ -4.2.

For G50A C95U C116U, the “polymerase ribozyme fitness (log ratio)” value is -1.99.

A91G G92A C125G C129G A137G: the “polymerase ribozyme fitness (log ratio)” value was ≤ -4.2.

For the variant A19U C57G C95U C103G U104G, the “polymerase ribozyme fitness (log ratio)” value is ≤ -4.2.

As for C10A G67C C93G C99G A137U U146A, the “polymerase ribozyme fitness (log ratio)” value was ≤ -4.2.

For the variant C54U U101G, the “polymerase ribozyme fitness (log ratio)” value is -0.483.

As to A29U A41U U53G G88U A89G G117A, the “polymerase ribozyme fitness (log ratio)” value was ≤ -4.2.

As to G88C A147C G152U, the “polymerase ribozyme fitness (log ratio)” value was ≤ -4.2.

As to G58U C69G C87G, the “polymerase ribozyme fitness (log ratio)” value is ≤ -4.2.

For the variant A17C C35U G74A C76A U78G, the “polymerase ribozyme fitness (log ratio)” value is ≤ -4.2.

As for C96U C105G, the “polymerase ribozyme fitness (log ratio)” value was -2.46.

For the variant U15A A47C G48C G58C C125U G140A, the “polymerase ribozyme fitness (log ratio)” value was ≤ -4.2.

In the case of G48A C96U A98G, the “polymerase ribozyme fitness (log ratio)” value was -0.496.

Regarding U55A C69U C93U, the “polymerase ribozyme fitness (log ratio)” value is -3.95.

In the case of A17C G48C C93G, the “polymerase ribozyme fitness (log ratio)” value was -3.01.

With U55A U102G, the “polymerase ribozyme fitness (log ratio)” value is -4.04.

For the variant C87U C96U C125U U144A, the “polymerase ribozyme fitness (log ratio)” value was -2.68.

Turning to C27A U33G A39G A60C C93U U127C G140A, the “polymerase ribozyme fitness (log ratio)” value was -4.14.

Regarding C38A A40U G48U C87G C99U G124A G140C, the “polymerase ribozyme fitness (log ratio)” value is ≤ -4.2.

C57A G59C U146C U148A C149U: the “polymerase ribozyme fitness (log ratio)” value is -3.99.

On to A60G U78A A106G C118U, for which the “polymerase ribozyme fitness (log ratio)” value is ≤ -4.2.

With U9G C10A C18U A66U G81U C96U, the “polymerase ribozyme fitness (log ratio)” value is ≤ -4.2.

Regarding G59C A64U C75U C132U, the “polymerase ribozyme fitness (log ratio)” value is ≤ -4.2.

With G59C C95A C99G, the “polymerase ribozyme fitness (log ratio)” value was ≤ -4.2.

Consider A17C A26U A49C, for which the “polymerase ribozyme fitness (log ratio)” value is ≤ -4.2.

As for U45A U55G U56G C87U G92C, the “polymerase ribozyme fitness (log ratio)” value is -3.98.

Turning to A49C G50C U53A C79A A137U, the “polymerase ribozyme fitness (log ratio)” value is ≤ -4.2.

For the variant U44A G58A C93U C96G A97G A98U A119G U144C A150U, the “polymerase ribozyme fitness (log ratio)” value is ≤ -4.2.

For the variant U13C U53G C87A A120U A142U U146A, the “polymerase ribozyme fitness (log ratio)” value is ≤ -4.2.

As for G11U U44A G92C, the “polymerase ribozyme fitness (log ratio)” value is ≤ -4.2.

As for G42C G84U A138G U146G, the “polymerase ribozyme fitness (log ratio)” value was ≤ -4.2.

With A20U C35A G92U A110U, the “polymerase ribozyme fitness (log ratio)” value is ≤ -4.2.

In the case of C85A C125A A137G, the “polymerase ribozyme fitness (log ratio)” value is -2.28.

With A19G C85U G94U G141U, the “polymerase ribozyme fitness (log ratio)” value amounted to 0.14.

Consider U15A A19C A52G G83A C103G, for which the “polymerase ribozyme fitness (log ratio)” value was -3.83.

U104G U135C G143C: the “polymerase ribozyme fitness (log ratio)” value was -3.79.

As to A41C A91C, the “polymerase ribozyme fitness (log ratio)” value is ≤ -4.2.

As to U31C A37C A106U A107C, the “polymerase ribozyme fitness (log ratio)” value is ≤ -4.2.

As to G58A C87U, the “polymerase ribozyme fitness (log ratio)” value was -0.808.
